In article PMC6542726 (Molecular psychiatry, 2018) one finds Kd data, which are given here for two molecules.

Experiment [1] addresses GABAA receptor associated protein (GABARAP) (mouse) (UniProt Q9DCD6). Put plainly: ITC. In general terms: ITC needs no label: the signal is the heat of the interaction.
Experiment [2] addresses GABAA receptor associated protein (GABARAP) (mouse, UniProt Q9DCD6 1-117). Briefly: ITC.

Sequence of GABAA receptor associated protein (GABARAP) (mouse) (Q9DCD6 whole entry): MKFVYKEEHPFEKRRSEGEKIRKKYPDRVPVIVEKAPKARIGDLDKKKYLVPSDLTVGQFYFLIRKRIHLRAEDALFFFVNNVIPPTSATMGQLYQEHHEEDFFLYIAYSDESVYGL
Sequence of GABAA receptor associated protein (GABARAP) (Q9DCD6 whole entry): as above

On to “ankyrin-G W1989R (from UniProt O70511 1985-2010) (domain or fragment)”, for which the Kd (usually the equilibrium constant for the complex coming apart) in experiment [1] turned out to be 11 µM.

The molecule PEDDWTEFSSEEIREARQAAASHAPS (domain or fragment) [ankyrin-G fragment of 26 amino acids (residues 1985-2010)] showed an equilibrium dissociation constant (Kd) in experiment [2] of 0.0029 µM.
